PMC5707411

Tests used:
5C4 IgG [1] = experiment: flow cytometry on cells; details: full-length pre-F variants expressed in Expi293 cells, read off a plot
D25 IgG [2] = experiment: flow cytometry on cells; details: full-length pre-F variants expressed in Expi293 cells, read off a plot
5C4 IgG [3] = experiment: flow cytometry on cells; details: full-length pre-F variants expressed in Expi293 cells; parent: est. 0.04; read off a plot
D25 IgG [4] = experiment: flow cytometry on cells; details: full-length pre-F variants expressed in Expi293 cells; parent: est. 0.14; read off a plot
[5] = biological target: prefusion-stabilized RSV F strain A2 (DS-Cav1); experiment: SPR
[6] = biological target: full-length RSV F (TM, residues 1–574) from strain 18537 with the DS-Cav1 prefusion-stabilizing mutations (respiratory syncytial virus subtype B, strain 18537) (UniProt P13843)
[7] = biological target: RSV F (+) FdTHS based on strain A2 (wild-type A2 RSV F ectodomain fused to a C-terminal trimerization motif) (respiratory syncytial virus subtype A, strain A2) (UniProt Q4KRW9); experiment: crystal structure; 5C4 Fab co-expressed with RSV F (+) FdTHS in Expi293, complex purified (Ni-NTA, Strep-Tactin, thrombin, Superose 6); crystal from 0.2 M ammonium acetate, 0.1 M Bis-Tris pH 6.5, 25% PEG 3350; 3.4 Å

Substance: full-length RSV F (TM, residues 1–574) from strain A2 with the DS-Cav1 prefusion-stabilizing mutations N67T
- other: Relative binding (fractional binding relative to motavizumab) (5C4 IgG [1]; parent: est. 0.75): 0.6
- other: Relative binding (fractional binding relative to motavizumab) (D25 IgG [2]; parent: est. 0.69): 0.61

Substance: full-length RSV F (TM, residues 1–574) from strain 18537 with the DS-Cav1 prefusion-stabilizing mutations (from UniProt P13843) R213S
- other: Relative binding (fractional binding relative to motavizumab) (5C4 IgG [3]): 0.01
- other: Relative binding (fractional binding relative to motavizumab) (D25 IgG [4]): 0.05

Substance: full-length RSV F (TM, residues 1–574) from strain 18537 with the DS-Cav1 prefusion-stabilizing mutations (from UniProt P13843) N200D
- other: Relative binding (fractional binding relative to motavizumab) (5C4 IgG [3]): 0.01
- other: Relative binding (fractional binding relative to motavizumab) (D25 IgG [4]): 0.33

Substance: full-length RSV F (TM, residues 1–574) from strain A2 with the DS-Cav1 prefusion-stabilizing mutations S213R
- other: Relative binding (fractional binding relative to motavizumab) (5C4 IgG [1]; parent: est. 0.75): 0.7
- other: Relative binding (fractional binding relative to motavizumab) (D25 IgG [2]; parent: est. 0.69): 0.65

Substance: full-length RSV F (TM, residues 1–574) from strain 18537 with the DS-Cav1 prefusion-stabilizing mutations (from UniProt P13843) R202Q
- other: Relative binding (fractional binding relative to motavizumab) (5C4 IgG [3]): 0.01
- other: Relative binding (fractional binding relative to motavizumab) (D25 IgG [4]): 0.37

Substance: full-length RSV F (TM, residues 1–574) from strain A2 with the DS-Cav1 prefusion-stabilizing mutations A74T
- other: Relative binding (fractional binding relative to motavizumab) (5C4 IgG [1]; parent: est. 0.75): 0.7
- other: Relative binding (fractional binding relative to motavizumab) (D25 IgG [2]; parent: est. 0.69): 0.68

Substance: full-length RSV F (TM, residues 1–574) from strain 18537 with the DS-Cav1 prefusion-stabilizing mutations (from UniProt P13843) N201K
- other: Relative binding (fractional binding relative to motavizumab) (5C4 IgG [1]; parent: est. 0.005): 0.44
- other: Relative binding (fractional binding relative to motavizumab) (D25 IgG [2]; parent: est. 0.14): 0.35
- other: Relative binding (fractional binding relative to motavizumab) (5C4 IgG [3]): 0.52
- other: Relative binding (fractional binding relative to motavizumab) (D25 IgG [4]): 0.35

Substance: full-length RSV F (TM, residues 1–574) from strain 18537 with the DS-Cav1 prefusion-stabilizing mutations (from UniProt P13843) T74A
- other: Relative binding (fractional binding relative to motavizumab) (5C4 IgG [3]): 0.01
- other: Relative binding (fractional binding relative to motavizumab) (D25 IgG [4]): 0.13

Substance: full-length RSV F (TM, residues 1–574) from strain A2 with the DS-Cav1 prefusion-stabilizing mutations K209Q
- other: Relative binding (fractional binding relative to motavizumab) (5C4 IgG [1]; parent: est. 0.75): 0.61
- other: Relative binding (fractional binding relative to motavizumab) (D25 IgG [2]; parent: est. 0.69): 0.54

Substance: full-length RSV F (TM, residues 1–574) from strain 18537 with the DS-Cav1 prefusion-stabilizing mutations (from UniProt P13843) Q209K
- other: Relative binding (fractional binding relative to motavizumab) (5C4 IgG [3]): 0.19
- other: Relative binding (fractional binding relative to motavizumab) (D25 IgG [4]): 0.58

Substance: D25 Fab
- Kd [5]: < 0.0769 nM
- koff [5]: < 1e-05 s⁻¹

Substance: 5C4 IgG (antibody)
- EC50 of 5C4 neutralisation of mKate-RSV B strain 18537 wild-type virus on HEp-2 cells (viral F without DS-Cav1; antibody format not given) [6]: 9.15 µg/mL

Substance: full-length RSV F (TM, residues 1–574) from strain 18537 with the DS-Cav1 prefusion-stabilizing mutations (from UniProt P13843) N201A
- other: Relative binding (fractional binding relative to motavizumab) (5C4 IgG [1]; parent: est. 0.005): 0.01
- other: Relative binding (fractional binding relative to motavizumab) (D25 IgG [2]; parent: est. 0.14): 0.003

Substance: full-length RSV F (TM, residues 1–574) from strain A2 with the DS-Cav1 prefusion-stabilizing mutations K201R
- other: Relative binding (fractional binding relative to motavizumab) (5C4 IgG [1]; parent: est. 0.60): 0.61
- other: Relative binding (fractional binding relative to motavizumab) (D25 IgG [2]; parent: est. 0.63): 0.64

Substance: full-length RSV F (TM, residues 1–574) from strain A2 with the DS-Cav1 prefusion-stabilizing mutations K201N
- other: Relative binding (fractional binding relative to motavizumab) (5C4 IgG [1]; parent: est. 0.60): 0.012
- other: Relative binding (fractional binding relative to motavizumab) (5C4 IgG [1]; parent: est. 0.75): 0.01
- other: Relative binding (fractional binding relative to motavizumab) (D25 IgG [2]; parent: est. 0.63): 0.64
- other: Relative binding (fractional binding relative to motavizumab) (D25 IgG [2]; parent: est. 0.69): 0.67

Substance: full-length RSV F (TM, residues 1–574) from strain 18537 with the DS-Cav1 prefusion-stabilizing mutations (from UniProt P13843) T67N
- other: Relative binding (fractional binding relative to motavizumab) (5C4 IgG [3]): 0.15
- other: Relative binding (fractional binding relative to motavizumab) (D25 IgG [4]): 0.53

Substance: full-length RSV F (TM, residues 1–574) from strain A2 with the DS-Cav1 prefusion-stabilizing mutations K201A
- other: Relative binding (fractional binding relative to motavizumab) (5C4 IgG [1]; parent: est. 0.60): 0.02
- other: Relative binding (fractional binding relative to motavizumab) (D25 IgG [2]; parent: est. 0.63): 0.64

Substance: RSV F (+) FdTHS based on strain A2 (wild-type A2 RSV F ectodomain fused to a C-terminal trimerization motif) (from UniProt Q4KRW9 1-391) (complex)
- stoichiometry N [7]: 3

Substance: full-length RSV F (TM, residues 1–574) from strain 18537 with the DS-Cav1 prefusion-stabilizing mutations (from UniProt P13843) N201R
- other: Relative binding (fractional binding relative to motavizumab) (5C4 IgG [1]; parent: est. 0.005): 0.4
- other: Relative binding (fractional binding relative to motavizumab) (D25 IgG [2]; parent: est. 0.14): 0.01

Substance: full-length RSV F (TM, residues 1–574) from strain A2 with the DS-Cav1 prefusion-stabilizing mutations D200N
- other: Relative binding (fractional binding relative to motavizumab) (5C4 IgG [1]; parent: est. 0.75): 0.74
- other: Relative binding (fractional binding relative to motavizumab) (D25 IgG [2]; parent: est. 0.69): 0.67

Substance: full-length RSV F (TM, residues 1–574) from strain A2 with the DS-Cav1 prefusion-stabilizing mutations Q202R
- other: Relative binding (fractional binding relative to motavizumab) (5C4 IgG [1]; parent: est. 0.75): 0.73
- other: Relative binding (fractional binding relative to motavizumab) (D25 IgG [2]; parent: est. 0.69): 0.63
